Some results are limits rather than exact numbers.

The target in the experiment is HA-tagged re-expressed version of the Qa-1b molecule (mouse). As to the kind of experiment: immunoprecipitation of Qa-1b from tumor cells, mass spectrometry of the associated peptides.
Chain of HA-tagged re-expressed version of the Qa-1b molecule (mouse) (P06339 21-357, chain 1 of 2): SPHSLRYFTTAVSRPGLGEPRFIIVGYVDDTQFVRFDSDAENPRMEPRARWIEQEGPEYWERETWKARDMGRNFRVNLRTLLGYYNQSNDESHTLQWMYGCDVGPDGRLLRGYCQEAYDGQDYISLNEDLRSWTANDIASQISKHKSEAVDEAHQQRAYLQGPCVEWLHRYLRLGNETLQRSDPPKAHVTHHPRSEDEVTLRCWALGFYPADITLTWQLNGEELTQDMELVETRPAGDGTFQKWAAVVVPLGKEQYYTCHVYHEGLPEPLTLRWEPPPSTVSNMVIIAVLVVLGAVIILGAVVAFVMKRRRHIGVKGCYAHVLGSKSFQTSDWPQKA
Chain of HA-tagged re-expressed version of the Qa-1b molecule (mouse) (P01887 21-119, chain 2 of 2, further chain): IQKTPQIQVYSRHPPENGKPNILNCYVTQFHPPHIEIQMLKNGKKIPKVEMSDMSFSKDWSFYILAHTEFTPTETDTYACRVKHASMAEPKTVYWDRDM

B1: Mouse Qdm Peptide (peptide)
peptide: AMAPRTLLL
With B1, the percent of Qa-1b associated with the peptide (control sample) is more than 99%.

Source of the values: patent publication US20220057403A1.
